Biological target: dsRBD1 of human TAR RNA Binding Protein (TRBP2) (human)
Assay: SEC-MALS

dsRBD1 of human TAR RNA Binding Protein (TRBP2) (domain or fragment)
population of tetramer relative to monomer: 0.25 | stoichiometry N: 4

Reference: doi:10.1101/797449
